Reference: patent US20180303952A1 (CYTOMX THERAPEUTICS, published 2018)
Numbering of substitutions follows the chain as printed.

T1: human CD147 protein (adsorbed to ELISA plates) (human, UniProt P35613-2 22-205, limits assumed)
T1 construct: also called human CD147 polypeptide; Basigin
T1 sequence (looked up): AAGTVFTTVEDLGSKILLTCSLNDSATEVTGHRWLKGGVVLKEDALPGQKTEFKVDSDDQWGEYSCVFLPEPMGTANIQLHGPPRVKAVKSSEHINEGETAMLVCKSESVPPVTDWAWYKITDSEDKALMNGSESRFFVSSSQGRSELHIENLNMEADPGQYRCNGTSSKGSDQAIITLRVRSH

B1: anti-human CD147 activatable antibody hu 3A11 Hc1/Lc1-414-3001 (antibody)
VH: EVQLVESGGGLVQPGGSLRLSCAASGFTFSNYWMDWVRQAPGKGLEWVGEIRLKSYNYATHYAASVKGRFTISRDDSKNSVYLQMNSLKTEDTAVYYCTAAGTDYWGQGTLVTVSS
VL: THGPCHFKPNCSYPTGGGSSGGSAVGLLAPPGGLSGRSDNHGGSDIQMTQSPSSLSASVGDRVTITCRASQSVRTDVGWYQQKPGKAPKLLIYYSSNRYTGVPSRFSGSGSGTDFTLTISSLQPEDFATYYCQQDYSSPYTFGQGTKLEIK
notes: also called hu 3A11-414-3001
B2: anti-human CD147 activatable antibody hu 3A11 Hc1/Lc1-414.3-2012 (antibody, V domains shown)
VH: B1 VH
VL: THGPCHFKPNCAYPTGGGSSGGSISSGLLSGRSANPGGGSDIQMTQSPSSLSASVGDRVTITCRASQSVRTDVGWYQQKPGKAPKLLIYYSSNRYTGVPSRFSGSGSGTDFTLTISSLQPEDFATYYCQQDYSSPYTFGQGTKLEIK
notes: also called hu 3A11-414.3-2012
B3: anti-human CD147 activatable antibody hu 3A11 Hc1/Lc1-419.3-3001 (antibody, V domains shown)
VH: B1 VH
VL: LHGPCHYDLKCKGGGSSGGSAVGLLAPPGGLSGRSDNHGGSDIQMTQSPSSLSASVGDRVTITCRASQSVRTDVGWYQQKPGKAPKLLIYYSSNRYTGVPSRFSGSGSGTDFTLTISSLQPEDFATYYCQQDYSSPYTFGQGTKLEIK
notes: also called hu 3A11-419.3-3001
B4: anti-human CD147 activatable antibody hu 3A11 Hc1/Lc1-419.2-3001 (antibody, V domains shown)
VH: B1 VH
VL: LHGPCHYDLKCKNNGGGSSGGSAVGLLAPPGGLSGRSDNHGGSDIQMTQSPSSLSASVGDRVTITCRASQSVRTDVGWYQQKPGKAPKLLIYYSSNRYTGVPSRFSGSGSGTDFTLTISSLQPEDFATYYCQQDYSSPYTFGQGTKLEIK
notes: also called hu 3A11-419.2-3001
B5: humanized anti-human CD147 antibody hu 3A11 Lc2/hu 3A11 Hc2 (antibody, V domains shown)
VH: B1 VH with D35N, V81L, T99A, A100R
VL: DIQMTQSPSSLSASVGDRVTITCKASQSVRTDVAWYQQKPGKAPKLLIYYSSNRYTGVPSRFSGSGSGTDFTLTISSLQPEDFATYYCQQDYSSPFTFGQGTKLEIK
notes: also called hu 3A11 (hu Lc2/hu Hc2)
B6: anti-human CD147 activatable antibody hu 3A11 Hc1/Lc1-414.1-3001 (antibody, V domains shown)
VH: B1 VH
VL: THGPCHFKPNCGGGSSGGSAVGLLAPPGGLSGRSDNHGGSDIQMTQSPSSLSASVGDRVTITCRASQSVRTDVGWYQQKPGKAPKLLIYYSSNRYTGVPSRFSGSGSGTDFTLTISSLQPEDFATYYCQQDYSSPYTFGQGTKLEIK
notes: also called hu 3A11-414.1-3001
B7: anti-human CD147 activatable antibody hu 3A11 Hc1/Lc1-415.1-2012 (antibody, V domains shown)
VH: B1 VH
VL: LHGPCHFNNCNTLGGGSSGGSISSGLLSGRSANPGGGSDIQMTQSPSSLSASVGDRVTITCRASQSVRTDVGWYQQKPGKAPKLLIYYSSNRYTGVPSRFSGSGSGTDFTLTISSLQPEDFATYYCQQDYSSPYTFGQGTKLEIK
notes: also called hu 3A11-415.1-2012
B8: anti-human CD147 activatable antibody hu 3A11 Hc1/Lc1-419.3-2012 (antibody, V domains shown)
VH: B1 VH
VL: LHGPCHYDLKCKGGGSSGGSISSGLLSGRSANPGGGSDIQMTQSPSSLSASVGDRVTITCRASQSVRTDVGWYQQKPGKAPKLLIYYSSNRYTGVPSRFSGSGSGTDFTLTISSLQPEDFATYYCQQDYSSPYTFGQGTKLEIK
notes: also called hu 3A11-419.3-2012
B9: anti-human CD147 activatable antibody hu 3A11 Hc1/Lc1-414.3-3001 (antibody)
VH: B1 VH
VL: B1 VL with S12A
notes: also called hu 3A11-414.3-3001
B10: anti-human CD147 activatable antibody hu 3A11 Hc1/Lc1-419.1-3001 (antibody)
VH: B1 VH
VL: B1 VL with T1L, F7Y, K8D, P9L, N10K, S12K, Y13Q, P14N
notes: also called hu 3A11-419.1-3001
B11: anti-human CD147 activatable antibody hu 3A11 Hc1/Lc1-414.4-2012 (antibody, V domains shown)
VH: B1 VH
VL: B2 VL with K8R
notes: also called hu 3A11-414.4-2012
B12: humanized anti-human CD147 antibody hu 3A11 Lc4/hu 3A11 Hc2 (antibody, V domains shown)
VH: B1 VH with D35N, V81L, T99A, A100R
VL: B5 VL with A13V, S67Y, L73F, L78V
notes: also called hu 3A11 (hu Lc4/hu Hc2)
B13: anti-human CD147 activatable antibody hu 3A11 Hc1/Lc1-414.2-3001 (antibody)
VH: B1 VH
VL: B1 VL with N10Q
notes: also called hu 3A11-414.2-3001
B14: anti-human CD147 activatable antibody hu 3A11 Hc1/Lc1-415-2012 (antibody, V domains shown)
VH: B1 VH
VL: B2 VL with T1L, K8N, P9N, N10C, C11N, A12T, Y13L, P14K, T15L
notes: also called hu 3A11-415-2012
B15: mouse anti-human CD147 monoclonal antibody 3A11 (antibody, V domains shown)
VH: EVKLEESGGGLVQPGGSMKLSCVASGFTFSNYWMNWVRQSPEKGLEWVGEIRLKSYNYATHYVESVEGRFTISRDDSKSSVYLQMNNLRAEDTGIYYCTAAGTDYWGQGTTLTVSS
VL: SIVMTQIPKILLVSAGDRVTITCKASQSVRTDVAWYQQKPGQSPKLLIYYSSNRYTGVPDRFTGSGYGTDFTFTISTVQAEDLAVYFCQQDYSSPFTFGSGTKLEIK
notes: Mouse hybridoma antibody, detected with anti-mouse Fc secondary antibody; also called Mouse 3A11; mu 3A11

Columns and labels:
[1] = target: T1, human CD147 protein (adsorbed to ELISA …); assay: ELISA, human CD147 protein adsorbed to plate, intact activatable antibody; apparent KD
Method: Humanized anti-human CD147 antibodies of the present disclosure hu 3A11 Hc1/Lc1 (VL of SEQ ID NO: 5 and VH of SEQ ID NO: 1) were used as a control.
(§1) Using a standard ELISA protocol, human CD147 protein was absorbed to ELISA plates and subsequently incubated with the indicated concentration of antibody of the present disclosure. Bound humanized activatable antibody of the present disclosure was detected with anti-human Fab-peroxidase secondary antibody and Ultra TMB detection (Thermo Fisher Scientific).

[2] = target: T1, human CD147 protein (adsorbed to ELISA …); assay: as above; remark: listed apart in the source
Method: as §1, with “For the exemplary assay depicted in FIGS. 7A-7C,” for “Using a”, “protocol was used, in which” for “protocol,”

[3] = target: T1, human CD147 protein (adsorbed to ELISA …); assay: ELISA, human CD147 protein adsorbed to plate, anti-human Fab-peroxidase detection; apparent KD
Method: The antibodies of the present disclosure that were assayed in this exemplary study were hu 3A11 Lc1/hu 3A11 Hc1 (VL of SEQ ID NO: 5 and VH of SEQ ID NO: 1), hu 3A11 Lc2/hu 3A11 Hc2 (VL of SEQ ID NO: 6 and VH of SEQ ID NO: 2), hu 3A11 Lc4/hu 3A11 Hc2 (VL of SEQ ID NO: 8 and VH of SEQ ID NO: 2). Using a standard ELISA protocol, human CD147 protein was absorbed to ELISA plates and subsequently incubated with the indicated concentration of antibody of the present disclosure. Bound humanized antibody of the present disclosure was detected with anti-human Fab-peroxidase secondary antibody, and Ultra TMB detection (Thermo Fisher Scientific).

[4] = target: T1, human CD147 protein (adsorbed to ELISA …); assay: ELISA, human CD147 protein adsorbed to plate, anti-mouse Fc-peroxidase detection; apparent KD
Method: The antibody of the present disclosure that was assayed in this exemplary study was hu 3A11 Lc1/Hc1 (VL of SEQ ID NO: 5 and VH of SEQ ID NO: 1). Mouse anti-human CD147 monoclonal antibody 3A11 (VL of SEQ ID NO: 8 and VH of SEQ ID NO: 4) was assayed as a reference. Using a standard ELISA protocol, human CD147 protein was absorbed to ELISA plates and subsequently incubated with the indicated concentration of antibody of the present disclosure. Bound humanized antibody of the present disclosure was detected with anti-human Fab-peroxidase secondary antibody and the mouse 3A11 monoclonal antibody was detected with anti-mouse Fc-peroxidase secondary antibody, and Ultra TMB detection (Thermo Fisher Scientific).

| Binder | Kd [2] [nM] | other results |
| --- | --- | --- |
| B1 | 24.7 | Kd [1]: 16 nM |
| B2 | 5.92 | – |
| B3 | 73.5 | – |
| B4 | 20.8 | – |
| B5 | – | Kd [3]: 0.726 nM |
| B6 | 13.8 | – |
| B7 | 4.68 | – |
| B8 | 10 | – |
| B9 | 20.2 | – |
| B10 | 44 | – |
| B11 | 6.73 | – |
| B12 | – | Kd [3]: 0.902 nM |
| B13 | 15.7 | – |
| B14 | 1.43 | – |
| B15 | – | Kd [4]: 0.293 nM |
